Experimental data from patent US9393271B2, “GHRH agonists for islet cell transplantation and function and the treatment of diabetes” (UNIVERSITY OF MIAMI, priority 2012, dated 2016).
Read-outs that look alike come from different tables or passages of the source. Non-standard residues stand in square brackets, D forms with d. Residues, ends and D or L forms follow the SMILES beside them. No end group written: not given here. *: point of attachment. Phe(F5) = N[C@@H](Cc1c(F)c(F)c(F)c(F)c1F)C(=O)O; Desaminotyrosyl = O=C(CCc1ccc(O)cc1)*; NMeY = CN[C@@H](Cc1ccc(O)cc1)C(=O)O; Agmatine = N=C(N)NCCCCN*; Nle = CCCC[C@H](N)C(=O)O; Orn = NCCC[C@H](N)C(=O)O; Abu = CC[C@H](N)C(=O)O; GABA = NCCCC(=O)O

Assays:
[1] = biological target: T1, GHRH receptor (human pituitary membrane homogenates) (Homo sapiens, UniProt Q02643); assay: GHRH receptor binding, ligand competition with 125I-labeled JV-1-42 (Table 7); parameters: Normal human pituitaries were purchased from the National Hormone and Peptide Program; tissue National Hormone and Peptide Program (A. F. Parlow, Harbor-UCLA Medical Center, Torrance, Calif.); host or cells: normal human pituitary, membrane fraction / homogenate; settings: JI-38 = 1
T1 sequence (Q02643 23-423): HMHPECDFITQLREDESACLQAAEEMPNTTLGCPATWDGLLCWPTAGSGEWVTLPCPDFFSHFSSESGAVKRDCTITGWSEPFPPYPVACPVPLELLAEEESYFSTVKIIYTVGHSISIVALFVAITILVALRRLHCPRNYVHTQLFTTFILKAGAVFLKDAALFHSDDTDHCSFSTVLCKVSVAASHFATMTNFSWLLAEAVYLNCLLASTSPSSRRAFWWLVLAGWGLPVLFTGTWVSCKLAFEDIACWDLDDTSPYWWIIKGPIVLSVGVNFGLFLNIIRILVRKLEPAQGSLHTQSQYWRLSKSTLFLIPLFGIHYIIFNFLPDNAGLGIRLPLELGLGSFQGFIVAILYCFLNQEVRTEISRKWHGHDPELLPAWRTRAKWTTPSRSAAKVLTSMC

[2] = tested on: INS-1 cells; assay: INS-1 proliferation (BrdU Cell Proliferation Assay); assay type: cell-based, rat; settings: different concentrations, 24 h, 48 h and 72 h
Method: For determination of proliferation activity, BrdU incorporation was performed in INS-1 cells following exposure to P-27403. Proliferation was measured using BrdU Cell Proliferation Assay (Millipore) following the manufacturer's description. The maximal enhancement in proliferation rate of 16% compared to control was found at 10^−8 M concentration of P-27403 (FIG. 1C).
INS-1 cells were grown for 72 h before experimentation. Cells were treated with GHRH agonists MR356, MR367, and MR403 at different concentrations or with 0.1% (vol/vol) DMSO as control for 24 h, 48 h and 72 h. Proliferation was measured using BrdU Cell Proliferation Assay (Millipore) following the manufacturer's description.

[3] = tested on: GH level; assay: In vivo endocrine activity (GH release), intravenous administration; settings: rat
Method: In vivo tests on endocrine activity of new GHRH agonists (Intravenous administration). For in vivo tests based on intravenous administration, adult male Sprague-Dawley rats were anesthetized with pentobarbital (6 mg/100/g, b.w.), and GHRH agonists were injected 20 minutes after the injection of pentobarbital. Blood samples were taken from the jugular vein (pretreated level), immediately after hGHRH(1-29)NH2 injection (as a control) or after hGHRH analogs injection. Blood samples were taken from the jugular vein 5, 15 and 30 minutes after the injection. The blood samples were centrifuged, plasma was removed and the GH level was measured by ELISA.

[4] = biological target: T1, GHRH receptor (human pituitary membrane homogenates); assay: GHRH receptor binding, ligand competition with 125I-labeled JV-1-42 (Table 5)
Source text: Normal human pituitaries were purchased from the National Hormone and Peptide Program (A. F. Parlow, Los Angeles, County Harbor-UCLA Medical Center, Torrance, Calif.).

[5] = tested on: GH level; assay: In vivo endocrine activity (GH release), subcutaneous administration; settings: rat, s.c.
Method: Subcutaneous Administration. Adult male rats were used and anesthetized with pentobarbital (6 mg/100 g, b.w.), by i.p. injection. […] Blood samples were taken from the jugular vein 5, 15 and/or 30 minutes after the injection. The blood samples were centrifuged, plasma was removed and the GH level was measured by ELISA. The results are summarized in terms of potency in Table 9.

[6] = biological target: GHRH receptor in human pituitary membrane homogenates (human) (UniProt Q02643); assay: ligand competition, [His1,125I-Tyr10,Nle27]hGHRH(1-32)NH2 displaced, human pituitary membranes
[7] = biological target: GHRH receptor in human pituitary membrane homogenates (human) (UniProt Q02643); assay: ligand competition, 125I-JV-1-42 displaced, human pituitary membranes
[8] = biological target: T2, GHRH receptor (rat) (rat, UniProt Q02644)
T2 sequence: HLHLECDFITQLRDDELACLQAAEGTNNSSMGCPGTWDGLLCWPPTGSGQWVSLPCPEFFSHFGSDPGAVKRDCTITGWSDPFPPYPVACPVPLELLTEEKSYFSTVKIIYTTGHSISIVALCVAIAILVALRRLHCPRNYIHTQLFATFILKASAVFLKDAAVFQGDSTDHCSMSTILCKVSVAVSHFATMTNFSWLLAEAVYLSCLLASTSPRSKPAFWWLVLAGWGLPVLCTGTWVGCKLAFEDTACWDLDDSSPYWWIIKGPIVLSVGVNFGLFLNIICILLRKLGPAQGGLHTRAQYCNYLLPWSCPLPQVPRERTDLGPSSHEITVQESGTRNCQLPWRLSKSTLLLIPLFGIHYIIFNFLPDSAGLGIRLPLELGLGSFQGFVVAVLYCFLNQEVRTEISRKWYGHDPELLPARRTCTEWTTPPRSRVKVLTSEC

[9] = biological target: GHRH receptor in human pituitary membrane homogenates (human) (UniProt Q02643); assay: ligand competition, 125I-JV-1-42 displaced, human pituitary membranes; remark: listed apart in the source
[10] = biological target: T3, GHRH receptor in human pituitary membrane homogenates (human, UniProt Q02643); assay: as above
T3 sequence: T1 sequence (Q02643 23-423)

[11] = biological target: T3, GHRH receptor in human pituitary …; assay: as above; remark: listed apart in the source
[12] = biological target: T2, GHRH receptor (rat); assay: cell-based or functional assay

## CCCC[C@H](NC(=O)[C@@H](NC(=O)[C@H](CC(=O)O)NC(=O)[C@H](CCC(N)=O)NC(=O)[C@H](CC(C)C)NC(=O)[C@H](CC(C)C)NC(=O)[C@H](CCCN)NC(=O)[C@H](CCCNC(=N)N)NC(=O)[C@H](C)NC(=O)[C@H](CO)NC(=O)[C@H](CC(C)C)NC(=O)[C@H](CCC(N)=O)NC(=O)[C@H](CC)NC(=O)[C@H](CC(C)C)NC(=O)[C@@H](NC(=O)[C@H](CCCN)NC(=O)[C@H](CCCNC(=N)N)NC(=O)[C@H](Cc1ccc(O)cc1)NC(=O)[C@H](CO)NC(=O)[C@H](CC(N)=O)NC(=O)[C@@H](NC(=O)[C@H](Cc1ccccc1)NC(=O)[C@@H](NC(=O)[C@H](C)NC(=O)[C@H](CC(=O)O)NC(=O)[C@@H](C)NC(=O)[C@H](Cc1ccc(O)cc1)NC)[C@@H](C)CC)[C@@H](C)O)C(C)C)[C@@H](C)CC)C(=O)N[C@@H](CC(=O)O)C(=O)NCCCCNC(=N)N [Peptide P-20367, [N—Me-Tyr^1, D-Ala^2, Orn^12, Abu^15, Orn^21, Nle^27, Asp^28, Agm^29]hGHRH(1-29)] (H-[NMeY][dA]DAIFTNSYR[Orn]VL[Abu]QLSAR[Orn]LLQDI[Nle]D-Agmatine)
[1]
  Relative affinitiy (Binding potency) vs JI-38: 2.56
[2]
  Cell proliferation compared to control: significantly induced cell proliferation

## CCCC[C@H](NC(=O)[C@@H](NC(=O)[C@H](CC(=O)O)NC(=O)[C@H](CCC(N)=O)NC(=O)[C@H](CC(C)C)NC(=O)[C@H](CC(C)C)NC(=O)[C@H](CCCN)NC(=O)[C@H](CCCNC(=N)N)NC(=O)[C@H](C)NC(=O)[C@H](CO)NC(=O)[C@H](CC(C)C)NC(=O)[C@H](CCC(N)=O)NC(=O)[C@H](CC)NC(=O)[C@H](CC(C)C)NC(=O)[C@@H](NC(=O)[C@H](CCCN)NC(=O)[C@H](CCCNC(=N)N)NC(=O)[C@H](Cc1ccc(O)cc1)NC(=O)[C@H](CO)NC(=O)[C@H](CC(N)=O)NC(=O)[C@@H](NC(=O)[C@H](Cc1c(F)c(F)c(F)c(F)c1F)NC(=O)[C@@H](NC(=O)[C@H](C)NC(=O)[C@H](CC(=O)O)NC(=O)[C@@H](C)NC(=O)CCc1ccc(O)cc1)[C@@H](C)CC)[C@@H](C)O)C(C)C)[C@@H](C)CC)C(=O)N[C@@H](CO)C(=O)N[C@@H](CCCNC(=N)N)C(=O)NCCCC(N)=O [Peptide P-25502, [Dat^1, D-Ala^2, Fpa5^6, Orn^12, Abu^15, Orn^21, Nle^27, Gab^30]hGHRH(1-30)NH2] (Desaminotyrosyl-[dA]DAI[Phe(F5)]TNSYR[Orn]VL[Abu]QLSAR[Orn]LLQDI[Nle]SR[GABA]-NH2)
[1]
  Relative affinitiy (Binding potency) vs JI-38: 13.18
[3]
  Stimulation of growth hormone levels after i.v. administration (comparison in words): most potent
[4]; GHRH(1-29) = 1
  Relative affinitiy (Binding potency) vs GHRH: 58.0
[4]; JI-38 = 1
  Relative affinitiy (Binding potency) vs JI-38: 24.4
[5]
  Stimulation of growth hormone levels after s.c. administration (comparison in words): stimulated greater growth hormone levels than hGHRH or JI-38

## JI-38 (peptide)
[6]
  IC50: 1.95 nM
  relative affinity (binding potency) vs GHRH (GHRH(1-29) = 1): 3.03
  relative affinity (binding potency) vs JI-38: 1 JI-38 = 1
[7]
  IC50: 4.35 nM
  relative affinity (binding potency) vs JI-38: 1 JI-38 = 1
[8]
  GH release from superfused rat pituitary cells, 1 nM for 3 min, GH by ELISA (peak fraction, average): 195 ng/mL
[9]
  IC50: 1.71 nM
  relative affinity (binding potency) vs GHRH (GHRH(1-29) = 1): 2.4

## [NMeY]ADAIFTQSYR[Orn]VL[Abu]QLSAR[Orn]LLQDI[Nle]D[Agmatine] [[N-Me-Tyr1, Gln8, Orn12, Abu15, Orn21, Nle27, Asp28, Agm29]hGHRH(1-29)]
[10]
  IC50: 0.01 nM
  relative affinity (binding potency) vs GHRH: 406 GHRH(1-29) = 1
  relative affinity (binding potency) vs JI-38: 171 JI-38 = 1
[11]
  IC50: 0.27 nM
  relative affinity (binding potency) vs JI-38: 16.1 JI-38 = 1
[12]
  GH-releasing potency in superfused rat pituitary cells relative to JI-38: ~3 times (vs JI-38)

B1: [Dat1, D-Ala2, Gln8, Orn12, Abu15, Orn21, Nle27, Asp28, Agm29]hGHRH(1-29) (peptide)
peptide: [Desaminotyrosyl][dA]DAIFTQSYR[Orn]VL[Abu]QLSAR[Orn]LLQDI[Nle]D[Agmatine]
SMILES: CCCC[C@H](NC(=O)[C@@H](NC(=O)[C@H](CC(=O)O)NC(=O)[C@H](CCC(N)=O)NC(=O)[C@H](CC(C)C)NC(=O)[C@H](CC(C)C)NC(=O)[C@H](CCCN)NC(=O)[C@H](CCCNC(=N)N)NC(=O)[C@H](C)NC(=O)[C@H](CO)NC(=O)[C@H](CC(C)C)NC(=O)[C@H](CCC(N)=O)NC(=O)[C@H](CC)NC(=O)[C@H](CC(C)C)NC(=O)[C@@H](NC(=O)[C@H](CCCN)NC(=O)[C@H](CCCNC(=N)N)NC(=O)[C@H](Cc1ccc(O)cc1)NC(=O)[C@H](CO)NC(=O)[C@H](CCC(N)=O)NC(=O)[C@@H](NC(=O)[C@H](Cc1ccccc1)NC(=O)[C@@H](NC(=O)[C@H](C)NC(=O)[C@H](CC(=O)O)NC(=O)[C@@H](C)NC(=O)CCc1ccc(O)cc1)[C@@H](C)CC)[C@@H](C)O)C(C)C)[C@@H](C)CC)C(=O)N[C@@H](CC(=O)O)C(=O)NCCCCNC(=N)N
[10]
  IC50: 0.04 nM
  relative affinity (binding potency) vs GHRH: 102 GHRH(1-29) = 1
  relative affinity (binding potency) vs JI-38: 42.7 JI-38 = 1
[11]
  IC50: 0.52 nM
  relative affinity (binding potency) vs JI-38: 8.37 JI-38 = 1
